4 molecules from patent US20220098307A1 (WUHAN YZY BIOPHARMA, published 2022) can be followed below.

One experiment has as its target T1, Monkey CD3 (monkey).
T1 construct: whole, on cells; also called CD3 of monkey CD3 positive T cells
Nature of the experiment: flow cytometry, monkey T cells. On the technique in general: Flow cytometry measures light scatter and fluorescence of single cells or particles in a stream.

For another experiment, the target named is T2, Human CD3ε (human, UniProt P07766 23-126).
T2 construct: CD3 on T cells isolated from human whole blood
The experiment can be described thus: flow cytometry, human T cells. The source says:
1) Cell preparation: T cells isolated from CD3-positive human whole blood were used for a CD3 end affinity detection of multifunctional antibody molecule; positive tumor cells of corresponding antigen were used for detecting affinity of tumor antigen; for example, CD38-positive MM. 1S cells (purchased from the Cell Resource Center of Shanghai Institutes for Biological Sciences, Chinese Academy of Sciences) or RPMI 8226 cells (purchased from the Cell Resource Center of Shanghai Institutes for Biological Sciences, Chinese Academy of Sciences) were used for CD38 antigen detection, and PD-L1 positive H358 cells (purchased from the Cell Resource Center of Shanghai Institutes for Biological Sciences, Chinese Academy of Sciences) were used for PD-L1 antigen detection, and so on. The cells were resuspended with 1% FBS-PBS, adjusted to a density of 4×10⁶/ml, and 50 μl of cells were taken from each well, and then plated at 2×10⁵ per well. Cell plating was operated on ice
2) Addition of the antibody: according to the experimental design, the antibody was diluted gradually, and dilution of antibody was operated on ice. For example, the initial concentration of antibody for dilution was 3000 nM, and the antibody was diluted by 3 times with 11 concentration gradients. The diluted antibody was added to a cell well at 50 μl per well, mixed well, and shaked and incubated at 4° C. 1100 rpm/min for 2 h; after washing, the cells were resuspend in 1% FBS-PBS, and a diluted secondary antibody PE anti-human IgG FC (Biolegend, 409304) was added with a final concentration of 8 ug/ml and a volume of 50 μl/well. At the same time, a well only added with cells and secondary antibody was set as a control, the components were mixed well, and incubated under shaking at 1100 rpm/min at 4° C. for 1 h;
5) Data analysis: the data was analyzed by a flow analysis software FlowJo 7.6 thereby obtaining an average fluorescence intensity of the specific antibody concentration, plotted by a Graphpad Prism 5 with the antibody concentration (nM) as an abscissa and the average fluorescence intensity as an ordinate; the EC50 value was calculated by the method of One site—Specific binding, and the EC50 value indicated the cell affinity of the antibody to the corresponding target antigen.

B1: M1IC-DG2-1 (bispecific antibody, human IgG1, kappa)
chain: QVQLVESGGGVVQPGRSLRLSCAASGFTFSTYAMNWVRQAPGKGLEWVARIRSKYNNYATYYADSVKDRFTISRDDSKNTLYLQMNSLRAEDTAVYYCARHGNFGNSYVSWFAYWGQGTLVTVSSGGGGSGGGGSGGGGSQTVVTQEPSLTVSPGGTVTLTCRSSTGAVTTSNYANWVQQKPGQAPRGLIGGTNKRAPGVPARFSGSLLGGKAALTLSGVQPEDEAEYYCALWYSNLWVFGGGTKVEIKGGGGSDKTHTCPPCPAPPVAGPSVFLFPPKPKDTLMISRTPEVTCVVVAVSHEDPEVQFNWYVDGVEVHNAKTKPREEQFNSTFRVVSVLTVVHQDWLNGKEYKCKVSNKGLPAPIEKTISKTKGQPREPQVCTLPPSRDELTKNQVSLSCAVKGFYPSDIAVEWESNGQPENNYKTTPPVLDSDGSFFLVSKLTVDKSRWQQGNVFSCSVMHEALHNHYTQKSLSLSPGK
heavy: EVKLDETGGGLVQPGRPMKLSCVASGFTFSDYWMNWVRQSPEKGLEWVAQIRNKPYNYETYYSDSVKGRFTISRDDSKSSVYLQMNNLRVEDMGIYYCTGSYYGMDYWGQGTSVTVSSASTKGPSVFPLAPSSKSTSGGTAALGCLVKDYFPEPVTVSWNSGALTSGVHTFPAVLQSSGLYSLSSVVTVPSSSLGTQTYICNVNHKPSNTKVDKKVEPKSCDKTHTCPPCPAPPVAGPSVFLFPPKPKDTLMISRTPEVTCVVVAVSHEDPEVQFNWYVDGVEVHNAKTKPREEQFNSTFRVVSVLTVVHQDWLNGKEYKCKVSNKGLPAPIEKTISKTKGQPREPQVYTLPPCRDELTKNQVSLWCLVKGFYPSDIAVEWESNGQPENNYKTTPPVLDSDGSFFLYSKLTVDKSRWQQGNVFSCSVMHEALHNHYTQKSLSLSPGK
light: DVVMTQTPLSLPVSLGDQASISCRSSQSLVHSNGNTYLRWYLQKPGQSPKVLIYKVSNRFSGVPDRFSGSGSGTDFTLKISRVEAEDLGVYFCSQSTHVPWTFGGGTKLEIKRTVAAPSVFIFPPSDEQLKSGTASVVCLLNNFYPREAKVQWKVDNALQSGNSQESVTEQDSKDSTYSLSSTLTLSKADYEKHKVYACEVTHQGLSSPVTKSFNRGEC
notes: structure 1 isotype control; CH2 DG2CH2; also called MlIC-DG2-1
One may read the EC50 as the concentration needed to bring the measured effect to its halfway point. As for B1, the EC50 in the experiment with Monkey CD3 was 130 nM; with Human CD3ε, 120 nM.

B2: M1IC-GG2-1 (bispecific antibody, human IgG1, kappa)
chain: QVQLVESGGGVVQPGRSLRLSCAASGFTFSTYAMNWVRQAPGKGLEWVARIRSKYNNYATYYADSVKDRFTISRDDSKNTLYLQMNSLRAEDTAVYYCARHGNFGNSYVSWFAYWGQGTLVTVSSGGGGSGGGGSGGGGSQTVVTQEPSLTVSPGGTVTLTCRSSTGAVTTSNYANWVQQKPGQAPRGLIGGTNKRAPGVPARFSGSLLGGKAALTLSGVQPEDEAEYYCALWYSNLWVFGGGTKVEIKGGGGSDKTHTCPPGPAPPVAGPSVFLFPPKPKDTLMISRTPEVTCVVVDVSHEDPEVQFNWYVDGVEVHNAKTKPREEQFNSTFRVVSVLTVVHQDWLNGKEYKCKVSNKGLPAPIEKTISKTKGQPREPQVCTLPPSRDELTKNQVSLSCAVKGFYPSDIAVEWESNGQPENNYKTTPPVLDSDGSFFLVSKLTVDKSRWQQGNVFSCSVMHEALHNHYTQKSLSLSPGK
heavy: EVKLDETGGGLVQPGRPMKLSCVASGFTFSDYWMNWVRQSPEKGLEWVAQIRNKPYNYETYYSDSVKGRFTISRDDSKSSVYLQMNNLRVEDMGIYYCTGSYYGMDYWGQGTSVTVSSASTKGPSVFPLAPSSKSTSGGTAALGCLVKDYFPEPVTVSWNSGALTSGVHTFPAVLQSSGLYSLSSVVTVPSSSLGTQTYICNVNHKPSNTKVDKKVEPKSCDKTHTCPPGPAPPVAGPSVFLFPPKPKDTLMISRTPEVTCVVVDVSHEDPEVQFNWYVDGVEVHNAKTKPREEQFNSTFRVVSVLTVVHQDWLNGKEYKCKVSNKGLPAPIEKTISKTKGQPREPQVYTLPPCRDELTKNQVSLWCLVKGFYPSDIAVEWESNGQPENNYKTTPPVLDSDGSFFLYSKLTVDKSRWQQGNVFSCSVMHEALHNHYTQKSLSLSPGK
light: DVVMTQTPLSLPVSLGDQASISCRSSQSLVHSNGNTYLRWYLQKPGQSPKVLIYKVSNRFSGVPDRFSGSGSGTDFTLKISRVEAEDLGVYFCSQSTHVPWTFGGGTKLEIKRTVAAPSVFIFPPSDEQLKSGTASVVCLLNNFYPREAKVQWKVDNALQSGNSQESVTEQDSKDSTYSLSSTLTLSKADYEKHKVYACEVTHQGLSSPVTKSFNRGEC
notes: structure 1 isotype control; CH2 GG2CH2
Turning to B2, the EC50 with Monkey CD3 stood at 166 nM; with Human CD3ε, 168 nM.

B3: M1IC-DG2D-1 (bispecific antibody, human IgG1, kappa)
chain: QVQLVESGGGVVQPGRSLRLSCAASGFTFSTYAMNWVRQAPGKGLEWVARIRSKYNNYATYYADSVKDRFTISRDDSKNTLYLQMNSLRAEDTAVYYCARHGNFGNSYVSWFAYWGQGTLVTVSSGGGGSGGGGSGGGGSQTVVTQEPSLTVSPGGTVTLTCRSSTGAVTTSNYANWVQQKPGQAPRGLIGGTNKRAPGVPARFSGSLLGGKAALTLSGVQPEDEAEYYCALWYSNLWVFGGGTKVEIKGGGGSDKTHTCPPCPAPPVAGPSVFLFPPKPKDTLMISRTPEVTCVVVAVSHEAPEVQFNWYVDGVEVHNAKTKPREEQFNSTFRVVSVLTVVHQDWLNGKEYKCKVSNKGLPAPIEKTISKTKGQPREPQVCTLPPSRDELTKNQVSLSCAVKGFYPSDIAVEWESNGQPENNYKTTPPVLDSDGSFFLVSKLTVDKSRWQQGNVFSCSVMHEALHNHYTQKSLSLSPGK
heavy: EVKLDETGGGLVQPGRPMKLSCVASGFTFSDYWMNWVRQSPEKGLEWVAQIRNKPYNYETYYSDSVKGRFTISRDDSKSSVYLQMNNLRVEDMGIYYCTGSYYGMDYWGQGTSVTVSSASTKGPSVFPLAPSSKSTSGGTAALGCLVKDYFPEPVTVSWNSGALTSGVHTFPAVLQSSGLYSLSSVVTVPSSSLGTQTYICNVNHKPSNTKVDKKVEPKSCDKTHTCPPCPAPPVAGPSVFLFPPKPKDTLMISRTPEVTCVVVAVSHEAPEVQFNWYVDGVEVHNAKTKPREEQFNSTFRVVSVLTVVHQDWLNGKEYKCKVSNKGLPAPIEKTISKTKGQPREPQVYTLPPCRDELTKNQVSLWCLVKGFYPSDIAVEWESNGQPENNYKTTPPVLDSDGSFFLYSKLTVDKSRWQQGNVFSCSVMHEALHNHYTQKSLSLSPGK
light: DVVMTQTPLSLPVSLGDQASISCRSSQSLVHSNGNTYLRWYLQKPGQSPKVLIYKVSNRFSGVPDRFSGSGSGTDFTLKISRVEAEDLGVYFCSQSTHVPWTFGGGTKLEIKRTVAAPSVFIFPPSDEQLKSGTASVVCLLNNFYPREAKVQWKVDNALQSGNSQESVTEQDSKDSTYSLSSTLTLSKADYEKHKVYACEVTHQGLSSPVTKSFNRGEC
notes: structure 1 isotype control; CH2 DG2DCH2
In the case of B3, the EC50 came to 181 nM with Monkey CD3 and 128 nM in the experiment with Human CD3ε.

B4: M1IC-G2D-1 (bispecific antibody, human IgG1, kappa)
chain: QVQLVESGGGVVQPGRSLRLSCAASGFTFSTYAMNWVRQAPGKGLEWVARIRSKYNNYATYYADSVKDRFTISRDDSKNTLYLQMNSLRAEDTAVYYCARHGNFGNSYVSWFAYWGQGTLVTVSSGGGGSGGGGSGGGGSQTVVTQEPSLTVSPGGTVTLTCRSSTGAVTTSNYANWVQQKPGQAPRGLIGGTNKRAPGVPARFSGSLLGGKAALTLSGVQPEDEAEYYCALWYSNLWVFGGGTKVEIKGGGGSDKTHTCPPCPAPPVAGPSVFLFPPKPKDTLMISRTPEVTCVVVDVSHEAPEVQFNWYVDGVEVHNAKTKPREEQFNSTFRVVSVLTVVHQDWLNGKEYKCKVSNKGLPAPIEKTISKTKGQPREPQVCTLPPSRDELTKNQVSLSCAVKGFYPSDIAVEWESNGQPENNYKTTPPVLDSDGSFFLVSKLTVDKSRWQQGNVFSCSVMHEALHNHYTQKSLSLSPGK
heavy: EVKLDETGGGLVQPGRPMKLSCVASGFTFSDYWMNWVRQSPEKGLEWVAQIRNKPYNYETYYSDSVKGRFTISRDDSKSSVYLQMNNLRVEDMGIYYCTGSYYGMDYWGQGTSVTVSSASTKGPSVFPLAPSSKSTSGGTAALGCLVKDYFPEPVTVSWNSGALTSGVHTFPAVLQSSGLYSLSSVVTVPSSSLGTQTYICNVNHKPSNTKVDKKVEPKSCDKTHTCPPCPAPPVAGPSVFLFPPKPKDTLMISRTPEVTCVVVDVSHEAPEVQFNWYVDGVEVHNAKTKPREEQFNSTFRVVSVLTVVHQDWLNGKEYKCKVSNKGLPAPIEKTISKTKGQPREPQVYTLPPCRDELTKNQVSLWCLVKGFYPSDIAVEWESNGQPENNYKTTPPVLDSDGSFFLYSKLTVDKSRWQQGNVFSCSVMHEALHNHYTQKSLSLSPGK
light: DVVMTQTPLSLPVSLGDQASISCRSSQSLVHSNGNTYLRWYLQKPGQSPKVLIYKVSNRFSGVPDRFSGSGSGTDFTLKISRVEAEDLGVYFCSQSTHVPWTFGGGTKLEIKRTVAAPSVFIFPPSDEQLKSGTASVVCLLNNFYPREAKVQWKVDNALQSGNSQESVTEQDSKDSTYSLSSTLTLSKADYEKHKVYACEVTHQGLSSPVTKSFNRGEC
notes: structure 1 isotype control; CH2 G2DCH2
B4: the EC50 with Monkey CD3 was 143 nM; in the experiment with Human CD3ε, 101 nM.
